This is an account of results in patent US20140087995A1 (published 2014).

To fix the notation:
T1: human calcitonin receptor (human, UniProt P30988 25-474)
T1 construct: whole, on cells; Assayed as cell membranes of BHK tk'ts 13 cells stably transfected with the human calcitonin receptor (Assay VII); also called hCTR; hCT
T1 sequence (looked up): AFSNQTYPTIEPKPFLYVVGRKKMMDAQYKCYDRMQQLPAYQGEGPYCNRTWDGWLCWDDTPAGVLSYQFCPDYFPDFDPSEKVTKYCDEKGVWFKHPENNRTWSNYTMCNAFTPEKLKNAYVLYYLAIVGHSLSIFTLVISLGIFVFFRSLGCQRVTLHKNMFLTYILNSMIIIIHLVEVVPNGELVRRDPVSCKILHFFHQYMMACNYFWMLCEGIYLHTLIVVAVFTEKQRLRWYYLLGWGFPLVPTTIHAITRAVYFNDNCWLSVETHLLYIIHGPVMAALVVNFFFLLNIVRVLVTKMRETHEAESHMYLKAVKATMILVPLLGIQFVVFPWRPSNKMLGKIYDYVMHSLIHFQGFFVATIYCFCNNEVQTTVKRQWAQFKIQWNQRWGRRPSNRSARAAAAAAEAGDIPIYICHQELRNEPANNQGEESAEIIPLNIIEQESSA

B1: N^ε1-[2-[2-[2-[[(4S)-4-carboxy-4-(19-carboxynonadecanoylamino)butanoyl]amino]ethoxy]ethoxy]acetyl]-[Arg17,Pro21,Pro27,Arg34]-h-amylin (peptide)
peptide: K([AEEA-γGlu-C20 diacid])CNTATCATQRLANFLRHSSPNFGAIPSSTNVGRNTY-NH2
modifications: disulfide 2-7; N-terminus assumed
SMILES: CC[C@H](C)[C@H](NC(=O)[C@H](C)NC(=O)CNC(=O)[C@H](Cc1ccccc1)NC(=O)[C@H](CC(N)=O)NC(=O)[C@@H]1CCCN1C(=O)[C@H](CO)NC(=O)[C@H](CO)NC(=O)[C@H](Cc1c[nH]cn1)NC(=O)[C@H](CCCNC(=N)N)NC(=O)[C@H](CC(C)C)NC(=O)[C@H](Cc1ccccc1)NC(=O)[C@H](CC(N)=O)NC(=O)[C@H](C)NC(=O)[C@H](CC(C)C)NC(=O)[C@H](CCCNC(=N)N)NC(=O)[C@H](CCC(N)=O)NC(=O)[C@@H](NC(=O)[C@H](C)NC(=O)[C@@H]1CSSC[C@H](NC(=O)[C@@H](N)CCCCNC(=O)COCCOCCNC(=O)CC[C@H](NC(=O)CCCCCCCCCCCCCCCCCCC(=O)O)C(=O)O)C(=O)N[C@@H](CC(N)=O)C(=O)N[C@@H]([C@@H](C)O)C(=O)N[C@@H](C)C(=O)N[C@@H]([C@@H](C)O)C(=O)N1)[C@@H](C)O)C(=O)N1CCC[C@H]1C(=O)N[C@@H](CO)C(=O)N[C@@H](CO)C(=O)N[C@H](C(=O)N[C@@H](CC(N)=O)C(=O)N[C@H](C(=O)NCC(=O)N[C@@H](CCCNC(=N)N)C(=O)N[C@@H](CC(N)=O)C(=O)N[C@H](C(=O)N[C@@H](Cc1ccc(O)cc1)C(N)=O)[C@@H](C)O)C(C)C)[C@@H](C)O
notes: also called compound 78
B2: N^ε1-[2-[2-[2-[[(4S)-4-carboxy-4-(19-carboxynonadecanoylamino)butanoyl]amino]ethoxy]ethoxy]acetyl]-[Arg17,Pro21,Pro27,Pro29,Pro34]-h-amylin (peptide)
peptide: K([AEEA-γGlu-C20 diacid])CNTATCATQRLANFLRHSSPNFGAIPSPTNVGPNTY-NH2
modifications: disulfide 2-7; N-terminus assumed
SMILES: CC[C@H](C)[C@H](NC(=O)[C@H](C)NC(=O)CNC(=O)[C@H](Cc1ccccc1)NC(=O)[C@H](CC(N)=O)NC(=O)[C@@H]1CCCN1C(=O)[C@H](CO)NC(=O)[C@H](CO)NC(=O)[C@H](Cc1c[nH]cn1)NC(=O)[C@H](CCCNC(=N)N)NC(=O)[C@H](CC(C)C)NC(=O)[C@H](Cc1ccccc1)NC(=O)[C@H](CC(N)=O)NC(=O)[C@H](C)NC(=O)[C@H](CC(C)C)NC(=O)[C@H](CCCNC(=N)N)NC(=O)[C@H](CCC(N)=O)NC(=O)[C@@H](NC(=O)[C@H](C)NC(=O)[C@@H]1CSSC[C@H](NC(=O)[C@@H](N)CCCCNC(=O)COCCOCCNC(=O)CC[C@H](NC(=O)CCCCCCCCCCCCCCCCCCC(=O)O)C(=O)O)C(=O)N[C@@H](CC(N)=O)C(=O)N[C@@H]([C@@H](C)O)C(=O)N[C@@H](C)C(=O)N[C@@H]([C@@H](C)O)C(=O)N1)[C@@H](C)O)C(=O)N1CCC[C@H]1C(=O)N[C@@H](CO)C(=O)N1CCC[C@H]1C(=O)N[C@H](C(=O)N[C@@H](CC(N)=O)C(=O)N[C@H](C(=O)NCC(=O)N1CCC[C@H]1C(=O)N[C@@H](CC(N)=O)C(=O)N[C@H](C(=O)N[C@@H](Cc1ccc(O)cc1)C(N)=O)[C@@H](C)O)C(C)C)[C@@H](C)O
notes: also called compound 56
B3: N^ε1-[2-[2-[2-[[(4S)-4-carboxy-4-(19-carboxynonadecanoylamino)butanoyl]amino]ethoxy]ethoxy]acetyl]-[Arg17,Pro21,Pro27,Pro28,Pro34]-h-amylin (peptide)
peptide: K([AEEA-γGlu-C20 diacid])CNTATCATQRLANFLRHSSPNFGAIPPSTNVGPNTY-NH2
modifications: disulfide 2-7; N-terminus assumed
SMILES: CC[C@H](C)[C@H](NC(=O)[C@H](C)NC(=O)CNC(=O)[C@H](Cc1ccccc1)NC(=O)[C@H](CC(N)=O)NC(=O)[C@@H]1CCCN1C(=O)[C@H](CO)NC(=O)[C@H](CO)NC(=O)[C@H](Cc1c[nH]cn1)NC(=O)[C@H](CCCNC(=N)N)NC(=O)[C@H](CC(C)C)NC(=O)[C@H](Cc1ccccc1)NC(=O)[C@H](CC(N)=O)NC(=O)[C@H](C)NC(=O)[C@H](CC(C)C)NC(=O)[C@H](CCCNC(=N)N)NC(=O)[C@H](CCC(N)=O)NC(=O)[C@@H](NC(=O)[C@H](C)NC(=O)[C@@H]1CSSC[C@H](NC(=O)[C@@H](N)CCCCNC(=O)COCCOCCNC(=O)CC[C@H](NC(=O)CCCCCCCCCCCCCCCCCCC(=O)O)C(=O)O)C(=O)N[C@@H](CC(N)=O)C(=O)N[C@@H]([C@@H](C)O)C(=O)N[C@@H](C)C(=O)N[C@@H]([C@@H](C)O)C(=O)N1)[C@@H](C)O)C(=O)N1CCC[C@H]1C(=O)N1CCC[C@H]1C(=O)N[C@@H](CO)C(=O)N[C@H](C(=O)N[C@@H](CC(N)=O)C(=O)N[C@H](C(=O)NCC(=O)N1CCC[C@H]1C(=O)N[C@@H](CC(N)=O)C(=O)N[C@H](C(=O)N[C@@H](Cc1ccc(O)cc1)C(N)=O)[C@@H](C)O)C(C)C)[C@@H](C)O
notes: also called compound 55
B4: N^ε1-[2-[2-[2-[[(4S)-4-carboxy-4-(19-carboxynonadecanoylamino)butanoyl]amino]ethoxy]ethoxy]acetyl]-[Arg17,Pro21,Pro27,Pro29,Pro31]-h-amylin (peptide)
peptide: K([AEEA-γGlu-C20 diacid])CNTATCATQRLANFLRHSSPNFGAIPSPTPVGSNTY-NH2
modifications: disulfide 2-7; N-terminus assumed
SMILES: CC[C@H](C)[C@H](NC(=O)[C@H](C)NC(=O)CNC(=O)[C@H](Cc1ccccc1)NC(=O)[C@H](CC(N)=O)NC(=O)[C@@H]1CCCN1C(=O)[C@H](CO)NC(=O)[C@H](CO)NC(=O)[C@H](Cc1c[nH]cn1)NC(=O)[C@H](CCCNC(=N)N)NC(=O)[C@H](CC(C)C)NC(=O)[C@H](Cc1ccccc1)NC(=O)[C@H](CC(N)=O)NC(=O)[C@H](C)NC(=O)[C@H](CC(C)C)NC(=O)[C@H](CCCNC(=N)N)NC(=O)[C@H](CCC(N)=O)NC(=O)[C@@H](NC(=O)[C@H](C)NC(=O)[C@@H]1CSSC[C@H](NC(=O)[C@@H](N)CCCCNC(=O)COCCOCCNC(=O)CC[C@H](NC(=O)CCCCCCCCCCCCCCCCCCC(=O)O)C(=O)O)C(=O)N[C@@H](CC(N)=O)C(=O)N[C@@H]([C@@H](C)O)C(=O)N[C@@H](C)C(=O)N[C@@H]([C@@H](C)O)C(=O)N1)[C@@H](C)O)C(=O)N1CCC[C@H]1C(=O)N[C@@H](CO)C(=O)N1CCC[C@H]1C(=O)N[C@H](C(=O)N1CCC[C@H]1C(=O)N[C@H](C(=O)NCC(=O)N[C@@H](CO)C(=O)N[C@@H](CC(N)=O)C(=O)N[C@H](C(=O)N[C@@H](Cc1ccc(O)cc1)C(N)=O)[C@@H](C)O)C(C)C)[C@@H](C)O
notes: also called compound 54
B5: N^ε1-[2-[2-[2-[[(4S)-4-carboxy-4-(19-carboxynonadecanoylamino)butanoyl]amino]ethoxy]ethoxy]acetyl]-[Arg17,Pro21,Pro27,His34]-h-amylin (peptide)
peptide: K([AEEA-γGlu-C20 diacid])CNTATCATQRLANFLRHSSPNFGAIPSSTNVGHNTY-NH2
modifications: disulfide 2-7; N-terminus assumed
SMILES: CC[C@H](C)[C@H](NC(=O)[C@H](C)NC(=O)CNC(=O)[C@H](Cc1ccccc1)NC(=O)[C@H](CC(N)=O)NC(=O)[C@@H]1CCCN1C(=O)[C@H](CO)NC(=O)[C@H](CO)NC(=O)[C@H](Cc1c[nH]cn1)NC(=O)[C@H](CCCNC(=N)N)NC(=O)[C@H](CC(C)C)NC(=O)[C@H](Cc1ccccc1)NC(=O)[C@H](CC(N)=O)NC(=O)[C@H](C)NC(=O)[C@H](CC(C)C)NC(=O)[C@H](CCCNC(=N)N)NC(=O)[C@H](CCC(N)=O)NC(=O)[C@@H](NC(=O)[C@H](C)NC(=O)[C@@H]1CSSC[C@H](NC(=O)[C@@H](N)CCCCNC(=O)COCCOCCNC(=O)CC[C@H](NC(=O)CCCCCCCCCCCCCCCCCCC(=O)O)C(=O)O)C(=O)N[C@@H](CC(N)=O)C(=O)N[C@@H]([C@@H](C)O)C(=O)N[C@@H](C)C(=O)N[C@@H]([C@@H](C)O)C(=O)N1)[C@@H](C)O)C(=O)N1CCC[C@H]1C(=O)N[C@@H](CO)C(=O)N[C@@H](CO)C(=O)N[C@H](C(=O)N[C@@H](CC(N)=O)C(=O)N[C@H](C(=O)NCC(=O)N[C@@H](Cc1c[nH]cn1)C(=O)N[C@@H](CC(N)=O)C(=O)N[C@H](C(=O)N[C@@H](Cc1ccc(O)cc1)C(N)=O)[C@@H](C)O)C(C)C)[C@@H](C)O
notes: also called compound 76

Numbered stars: 1 amine (or outer) side, 2 acyl side, 3 side chain; on linkers, the order of the positions; unused ones are H or OH. Bridge positions count the residues as written; N and C are the ends. Side chains are listed from the residue outwards. Ends that are not written are not given here. * marks the point of attachment. C20 diacid = O=C(O)CCCCCCCCCCCCCCCCCCC(=O)*; γGlu = O=C(O)[C@H](CCC(=O)[*:2])N[*:1]; AEEA = NCCOCCOCC(=O)O

One assay deals with T1, human calcitonin receptor. Kind of assay: IC50 at hCTR divided by IC50 at hAmylin-R (SPA competition assays V and VII). A digest of the protocol: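 IC₅₀ values were derived by one-site competition analysis of SPA counts. Cell membranes (35 ng/μL) with SPA beads were incubated with test compounds for 120 min at 25° C in Hepes buffer, pH 7.4, containing CaCl2, MgCl₂, OA and Tween20.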
In the case of B1, the “Ratio hCT/hAmylin binding” value amounted to 60.7.
Still for that read-out and setting: the result for K([AEEA-γGlu-C20 diacid])CNTATCATQRLANFLRHSSPNFGAIPPSTPVGSNTY-NH2 (disulfide 2-7, also called compound 53) reads 104; that for B2, 42.6; that for B3, 51.8.
Still for that read-out and setting: the result for B4 reads 146; that for B5, 80.

The target of another assay is T1, human calcitonin receptor. Nature of the assay: SPA competition vs 125I-calcitonin, membranes of BHK cells with human calcitonin receptor (Assay VII). The gist of the method: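 BHK hCTR membranes 35 ng/μL + SPA beads 0.05 mg/well; buffer 50 mM Hepes pH 7.4, 1 mM CaCl2, 5 mM MgCl₂, 0.1% OA, 0.02% Tween20. 120 min, 25° C., shaking. Scintillation count; IC50 by one-site binding competition.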
In the case of B1, the concentration for half-maximal inhibition (IC50) was 36.5 nM.
In the case of K([AEEA-γGlu-C20 diacid])CNTATCATQRLANFLRHSSPNFGAIPPSTPVGSNTY-NH2 (disulfide 2-7, also called compound 53), the IC50 stood at 5.38 nM.
The same measure, in the same setting: in the case of B2 it was 2.09 nM.
In the case of B3, the IC50 came out at 2.17 nM.
Turning to B4, the half-maximal inhibitory concentration (IC50) worked out at 4.38 nM.
Still for that read-out and setting: in the case of B5 it was 17.2 nM.

In general, IC50 refers to the midpoint of a concentration-inhibition curve.
